Where two headings read alike, the source gives them in different places.

Five molecules from US20250326840A1 (QURE BIOTECHNOLOGY SHANGHAI, published 2025) can be followed below.

For test [1], the target named is T1, PD-L1-his (QPP09) (human, UniProt Q9NZQ7 19-239, limits assumed).
T1 construct: also called human PD-L1; human PD-L1 recombinant protein
The test can be described thus: SPR, Biacore 8K. On the technique in general: Surface plasmon resonance follows binding to a sensor surface in real time, without labels.

Test [2] concerns the target QP003 (PDL1-his). The test can be described thus: ELISA, QP003 (PDL1-his) captured on coated anti-his, anti-hFc detection; unit from the x axis Log(Conc.(nM)). For orientation: An ELISA detects its analyte on a solid surface through an enzyme-linked reagent.
Test [3] has as its target PD-L1-mouse Fc protein (human, UniProt Q9NZQ7 19-239, limits assumed). The test can be described thus: blocking ELISA: QP1138 (PD1-FC) coated, PDL1-mouse FC mixed with the antibody, HRP anti-mouse IgG; blocked partner: PD-1; unit from the x axis Log(Conc.(nM)).
Test [4] addresses T2, QP094 (human SIRPα V1 ECD(E31-R370)-flag-his) (human, UniProt P78324 31-370).
T2 construct: the construct carries flag and his tags; also called SIRPαV1-flag-his; SIRPαV1-his (QP094)
The test can be described thus: binding ELISA, antigen coated.

The target in test [5] is T3, QP271 (rhesus SIRPα1-flag-his T-557-28) (rhesus monkey).
T3 construct: also called rhesus monkey SIRPα (QP271); monkeySIRPα1-flag-his
T3 chain: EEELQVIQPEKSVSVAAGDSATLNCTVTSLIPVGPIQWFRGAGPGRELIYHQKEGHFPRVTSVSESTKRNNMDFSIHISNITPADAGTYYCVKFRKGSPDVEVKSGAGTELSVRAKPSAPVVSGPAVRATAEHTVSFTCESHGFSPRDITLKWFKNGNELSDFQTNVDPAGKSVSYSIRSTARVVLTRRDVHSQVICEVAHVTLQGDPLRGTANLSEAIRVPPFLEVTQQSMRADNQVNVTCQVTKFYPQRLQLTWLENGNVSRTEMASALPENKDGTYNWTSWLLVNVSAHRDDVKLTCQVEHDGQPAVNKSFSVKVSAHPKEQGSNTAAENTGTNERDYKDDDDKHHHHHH
Nature of the test: binding ELISA, antigen coated.

Test [6] has as its target T4, QP098 (cyno SIRPα (I7G9Z7) ECD(E31-R369)-flag-his) (cynomolgus).
T4 construct: the construct carries flag and his tags; also called cynoSIRPα (ECD); cynomolgus SIRPα
T4 chain: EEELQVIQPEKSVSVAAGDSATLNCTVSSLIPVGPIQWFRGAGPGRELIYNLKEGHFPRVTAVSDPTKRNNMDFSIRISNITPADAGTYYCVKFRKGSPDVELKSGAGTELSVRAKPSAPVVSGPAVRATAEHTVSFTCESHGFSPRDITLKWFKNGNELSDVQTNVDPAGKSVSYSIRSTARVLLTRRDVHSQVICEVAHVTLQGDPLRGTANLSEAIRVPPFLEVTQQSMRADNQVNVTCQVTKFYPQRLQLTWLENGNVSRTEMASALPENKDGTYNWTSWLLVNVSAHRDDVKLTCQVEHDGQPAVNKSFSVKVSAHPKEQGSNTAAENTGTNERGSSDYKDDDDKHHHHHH
The test can be described thus: binding ELISA, antigen coated.

For test [7], the target named is T5, QP100 (cyno SIRPα (G7PGS8) ECD(E29-R368)-flag-his) (cynomolgus).
T5 construct: the construct carries flag and his tags; also called cynoSIRPα-flag-his; Cynomolgus SIRPα (QP100)
T5 chain: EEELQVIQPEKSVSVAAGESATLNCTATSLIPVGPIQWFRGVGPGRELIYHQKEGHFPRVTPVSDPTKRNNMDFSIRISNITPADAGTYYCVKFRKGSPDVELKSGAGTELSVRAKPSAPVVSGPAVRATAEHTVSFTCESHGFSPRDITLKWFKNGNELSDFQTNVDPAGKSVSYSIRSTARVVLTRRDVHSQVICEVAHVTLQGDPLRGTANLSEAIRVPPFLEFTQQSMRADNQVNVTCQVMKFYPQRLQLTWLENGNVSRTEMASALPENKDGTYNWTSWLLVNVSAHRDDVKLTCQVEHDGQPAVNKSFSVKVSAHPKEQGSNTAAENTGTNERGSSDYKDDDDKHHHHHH
The test can be described thus: binding ELISA, antigen coated.

Test [8] concerns the target T6, QP273 (cynoSIRPα2-flag-his T-557-14) (cynomolgus).
T6 construct: also called cynomolgus SIRPα (QP273)
T6 chain: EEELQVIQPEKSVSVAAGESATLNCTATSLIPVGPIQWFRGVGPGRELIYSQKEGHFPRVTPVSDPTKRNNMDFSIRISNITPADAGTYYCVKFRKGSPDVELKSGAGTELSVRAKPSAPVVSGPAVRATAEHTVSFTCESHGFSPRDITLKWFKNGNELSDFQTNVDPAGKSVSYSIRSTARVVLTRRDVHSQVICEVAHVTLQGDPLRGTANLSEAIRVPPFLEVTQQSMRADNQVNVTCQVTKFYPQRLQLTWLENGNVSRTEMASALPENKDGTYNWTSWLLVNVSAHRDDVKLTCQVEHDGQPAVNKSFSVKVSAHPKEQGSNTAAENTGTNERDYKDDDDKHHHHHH
Nature of the test: binding ELISA, antigen coated.

Test [9] has as its target T7, QP096 (human SIRPα V2 ECD(E31-R370)-flag-his) (human).
T7 construct: the construct carries flag and his tags; also called SIRPαV2-Flag-his; Human SIRPα V2 (QP096)
Nature of the test: binding ELISA, antigen coated.

Test [10] has as its target T2, QP094 (human SIRPα V1 …). Nature of the test: SPR, Biacore.
The target in test [11] is T5, QP100 (cyno SIRPα (G7PGS8) …). Nature of the test: SPR, Biacore.
Test [12] addresses T7, QP096 (human SIRPα V2 …). Nature of the test: SPR, Biacore.
The target of test [13] is T2, QP094 (human SIRPα V1 …). Nature of the test: SPR, Biacore. This is another data set of the same source.
The target in test [14] is T3, QP271 (rhesus SIRPα1-flag-his T-557-28). The test can be described thus: SPR, Biacore.
Test [15] concerns the target T4, QP098 (cyno SIRPα (I7G9Z7) …). Nature of the test: SPR, Biacore.
Test [16] has as its target T6, QP273 (cynoSIRPα2-flag-his T-557-14). The test can be described thus: SPR, Biacore.
Test [17] concerns the target T7, QP096 (human SIRPα V2 …). Nature of the test: SPR, Biacore. This is another data set of the same source.
The target of test [18] is T8, QP002 (biotinylated in the blocking assays, sites not given).
T8 construct: also called SIRPα-FC; Biotin-QP002
The test can be described thus: blocking ELISA: QP001.2 (CD47) coated, biotin-QP002 (SIRPα-FC) mixed with the antibody, HRP-streptavidin; blocked ligand: CD47.

T1 sequence (Q9NZQ7 19-239 limits assumed): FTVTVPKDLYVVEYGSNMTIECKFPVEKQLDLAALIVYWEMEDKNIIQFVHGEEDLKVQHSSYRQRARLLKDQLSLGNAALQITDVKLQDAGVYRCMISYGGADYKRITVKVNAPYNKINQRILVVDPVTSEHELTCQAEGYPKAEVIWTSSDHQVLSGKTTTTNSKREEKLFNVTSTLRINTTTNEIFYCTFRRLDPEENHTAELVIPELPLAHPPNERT
Chain of QP003 (PDL1-his) (chain, as listed by the source limits assumed): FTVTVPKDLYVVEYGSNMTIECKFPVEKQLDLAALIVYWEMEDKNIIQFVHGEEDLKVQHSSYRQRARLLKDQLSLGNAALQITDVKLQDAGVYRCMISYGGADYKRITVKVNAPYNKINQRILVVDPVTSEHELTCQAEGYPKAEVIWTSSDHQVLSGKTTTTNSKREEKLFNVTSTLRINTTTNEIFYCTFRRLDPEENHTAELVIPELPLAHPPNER
Chain of PD-L1-mouse Fc protein (Q9NZQ7 19-239 limits assumed): as the sequence (Q9NZQ7 19-239 limits assumed) above

B1: QP32700624 (bispecific antibody, human IgG1, kappa, L234A L235A)
heavy: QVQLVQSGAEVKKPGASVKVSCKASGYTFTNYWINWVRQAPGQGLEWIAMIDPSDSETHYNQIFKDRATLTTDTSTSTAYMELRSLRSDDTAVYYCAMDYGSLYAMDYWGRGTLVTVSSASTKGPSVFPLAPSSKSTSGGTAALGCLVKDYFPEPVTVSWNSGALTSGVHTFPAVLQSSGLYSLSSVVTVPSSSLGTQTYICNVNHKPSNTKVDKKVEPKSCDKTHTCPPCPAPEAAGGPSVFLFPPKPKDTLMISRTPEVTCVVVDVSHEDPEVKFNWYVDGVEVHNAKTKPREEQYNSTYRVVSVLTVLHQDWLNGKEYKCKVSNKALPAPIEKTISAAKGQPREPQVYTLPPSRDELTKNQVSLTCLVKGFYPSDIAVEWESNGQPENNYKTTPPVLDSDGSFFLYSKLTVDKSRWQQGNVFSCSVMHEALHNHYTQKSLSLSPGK
light: EVQLLESGGGLVQPGGSLRLSCAASGFTLDDYAIGWFRQAPGKGREGVSCISKSGETTFFVESVKDRFTISRDNSKNTLYLQMNSLRAEDTAVYYCATGSWCTVGSMSRQFYRQFFHSWGQGTLVTVSSGGGGSGGGGSDIVLTQSPDSLAVSLGERATINCRASQSVRSSGYNWIFWYQQKPGQPPKLLIYLASNRDSGVPDRFSGSGSGTDFTLTISSLQAEDVAVYYCQHSRELPTFGQGTKLEIKRTVAAPSVFIFPPSDEQLKSGTASVVCLLNNFYPREAKVQWKVDNALQSGNSQESVTEQDSKDSTYSLSSTLTLSKADYEKHKVYACEVTHQGLSSPVTKSFNRGEC
notes: Anti-PD-L1 VHH-(G4S)2 fused to the N-terminus of the light chain
In [1], B1 gave a Kd of 1.64 nM, a koff of 0.00122 s⁻¹ and a kon of 744000 M⁻¹ s⁻¹. Further, the half-maximal effective concentration (EC50) in [2] was found to be 0.0134 nM. In addition, the IC50 in [3] came out at 0.663 nM.

B2: QP32700625 (bispecific antibody, human IgG1, kappa, L234A L235A)
heavy: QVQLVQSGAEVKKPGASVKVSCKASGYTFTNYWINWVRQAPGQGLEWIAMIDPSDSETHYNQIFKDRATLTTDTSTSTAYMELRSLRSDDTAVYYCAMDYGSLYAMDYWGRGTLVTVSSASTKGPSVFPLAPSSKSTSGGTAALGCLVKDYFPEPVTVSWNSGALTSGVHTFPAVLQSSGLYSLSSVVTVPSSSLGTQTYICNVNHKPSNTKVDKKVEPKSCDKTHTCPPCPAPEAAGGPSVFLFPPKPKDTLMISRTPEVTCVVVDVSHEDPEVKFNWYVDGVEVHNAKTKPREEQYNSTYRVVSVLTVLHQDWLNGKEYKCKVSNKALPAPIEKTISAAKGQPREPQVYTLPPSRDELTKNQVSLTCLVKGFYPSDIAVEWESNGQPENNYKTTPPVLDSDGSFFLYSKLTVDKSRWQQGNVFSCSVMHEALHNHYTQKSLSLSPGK
light: EVQLLESGGGLVQPGGSLRLSCAASGFTLDDYAIGWFRQAPGKGREGVSCISKSGETTFFVESVKDRFTISRDNSKNTLYLQMNSLRAEDTAVYYCATGSWCTVGSMSRQFYRQFFHSWGQGTLVTVSSGGGGSGGGGSGGGGSDIVLTQSPDSLAVSLGERATINCRASQSVRSSGYNWIFWYQQKPGQPPKLLIYLASNRDSGVPDRFSGSGSGTDFTLTISSLQAEDVAVYYCQHSRELPTFGQGTKLEIKRTVAAPSVFIFPPSDEQLKSGTASVVCLLNNFYPREAKVQWKVDNALQSGNSQESVTEQDSKDSTYSLSSTLTLSKADYEKHKVYACEVTHQGLSSPVTKSFNRGEC
notes: Anti-PD-L1 VHH-(G4S)3 fused to the N-terminus of the light chain
As to B2, in test [1], the Kd came to 1.29 nM, the koff came out at 0.00103 s⁻¹ and the kon was 801000 M⁻¹ s⁻¹. The same molecule displayed an EC50 in [2] of 0.0133 nM. In test [3], this molecule had an IC50 of 0.59 nM.

B3: QP256253 (antibody, human IgG4, V domains shown)
VH: QVQLVQSGAEVKKPGASVKVSCKASGYTFTNYWINWVRQAPGQGLEWIAMIDPSDSETHYNQIFKDRATLTTDTSTSTAYMELRSLRSDDTAVYYCAMDYGSLYAMDYWGRGTLVTVSS
VL: DIVLTQSPDSLAVSLGERATINCRASKSVSSSGYNYIFWYQQKPGQPPKLLIYLASNLDSGVPDRFSGSGSGTDFTLTISSLQAEDVAVYYCQHSRELPTFGQGTKLEIK
notes: also called humanized antibody QP256253; QP163164 humanized clone
On to B3, for which the EC50 in [4] worked out at 1.19 ng/mL; in [5], 0.947 ng/mL; in test [6] it was 1.26 ng/mL; in test [7], 1.72 ng/mL; in [8], 1.51 ng/mL; in [9], 1.19 ng/mL. For the same molecule, the Kd in test [10] turned out to be 0.336 nM; in [11], 77.9 nM; in [12], 0.319 nM; in [13], 0.26 nM; in test [14] it was 7.97 nM; in [15], 26.8 nM. The Kd turned out to be 12.7 nM in test [16] and 0.276 nM in test [17]. Moreover, the off-rate constant (koff) turned out to be 0.00079 s⁻¹ in test [10], 0.196 s⁻¹ in test [11] and 0.00109 s⁻¹ in test [12]. The values for the kon in test [10], in [11] and in test [12] were 2.35e+06 M⁻¹ s⁻¹, 2.52e+06 M⁻¹ s⁻¹ and 3.42e+06 M⁻¹ s⁻¹, respectively. In test [18], the “IC50 (read off the curve)” value was about 20 ng/mL.

B4: QP2561586 (antibody, human IgG4, V domains shown)
VH: QVQLVQSGAEVKKPGASVKVSCKASGYTFTNYWINWVRQAPGQGLEWIAMIDPSDSETHYNQIFKDRATLTTDTSTSTAYMELRSLRSDDTAVYYCAMDYGSLYAMDYWGRGTLVTVSS
VL: DIVLTQSPDSLAVSLGERATINCRASKSVSSSGYNYIFWYQQKPGQPPKLLIYLASNLDSGVPDRFSGSGSGTDFTLTISSLQAEDVAVYYCQESRELPTFGQGTKLEIK
notes: Human IgG4 heavy constant region and kappa CL
Regarding B4, the EC50 turned out to be 1.05 ng/mL in test [4]; 0.967 ng/mL in test [5]; 1.2 ng/mL in test [6]; 1.23 ng/mL in test [7]; 1.03 ng/mL in [8]; 1.11 ng/mL in [9]. For the same molecule, the Kd in test [13] stood at 0.0597 nM; in test [14] it was 1.74 nM; in test [15] it was 4.22 nM; in [16] it was 2.22 nM; in [17], 0.0891 nM. The “IC50 (read off the curve)” value in [18] is about 20 ng/mL.

B5: QP2561589 (antibody, human IgG4, V domains shown)
VH: QVQLVQSGAEVKKPGASVKVSCKASGYTFTNYWINWVRQAPGQGLEWIAMIDPSDSETHYNQIFKDRATLTTDTSTSTAYMELRSLRSDDTAVYYCAMDYGSLYAMDYWGRGTLVTVSS
VL: DIVLTQSPDSLAVSLGERATINCRASKSVSSSGYNYIFWYQQKPGQPPKLLIYLASNLDSGVPDRFSGSGSGTDFTLTISSLQAEDVAVYYCQESWELPTFGQGTKLEIK
notes: as for B4
Take B5: the EC50 in test [4] stood at 1.37 ng/mL; in [5], 0.936 ng/mL; in [6], 1.6 ng/mL; in test [7], 2.01 ng/mL; in test [8], 1.43 ng/mL; in [9], 1.17 ng/mL. The Kd in test [13] was 0.085 nM; in [14], 2.41 nM; in test [15], 6.03 nM; in [16], 3.2 nM; in [17] it was 0.0392 nM. In addition, in test [18], the “IC50 (read off the curve)” value was about 20 ng/mL.

As a reminder, the Kd is the equilibrium constant for the complex coming apart. High values mean a looser complex, low ones a tighter complex. The term koff denotes a measure of how fast the partners let go of each other. The low end stands for slow dissociation, the high end for fast dissociation. The term kon denotes the second-order rate constant of association. A higher kon goes with faster complex formation. The term EC50 denotes the concentration needed to bring the measured effect to its halfway point. By IC50 is commonly meant the concentration that inhibits the measured activity by half. A low value points to greater potency in that assay.
